Test [1] addresses T1, human ICOS expressed on cells (human, UniProt Q9Y6W8 21-199).
T1 sequence: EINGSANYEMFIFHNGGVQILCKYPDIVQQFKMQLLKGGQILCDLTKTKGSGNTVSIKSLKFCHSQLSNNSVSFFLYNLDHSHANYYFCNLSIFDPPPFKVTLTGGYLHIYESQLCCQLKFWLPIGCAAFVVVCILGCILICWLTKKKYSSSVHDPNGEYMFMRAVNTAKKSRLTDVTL
Briefly: cell-based or functional assay.

The target in test [2] is T2, human ICOS-mFc (Chimerigen) (human, UniProt Q9Y6W8 21-140).
T2 construct: Bought; also called recombinant human ICOS protein; hICOS; not shown: mouse Fc of the bought fusion
T2 sequence: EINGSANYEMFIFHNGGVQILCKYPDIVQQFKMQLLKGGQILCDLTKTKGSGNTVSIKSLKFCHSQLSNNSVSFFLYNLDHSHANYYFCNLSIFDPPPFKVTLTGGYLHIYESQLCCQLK
Nature of the test: DELFIA ELISA on coated human ICOS-mFc, N=3. The method, then:
(§1) Recombinant ICOS proteins, human ICOS-mFc or mouse ICOS-mFc (Chimerigen) were diluted in 1×PBS and added to Black Hi-bind plates (Griener) at 1 μg/ml, 50 μl/well. Recombinant PD-L1 proteins, human PD-L1-Flag-His or mouse-His were diluted in 1×PBS and added to Black Hi-bind plates (Griener) at 4 μg/ml, 50 μl/well. The plates were left overnight at 4° C. The next day plates were washed 3× with 300 μl/well of 1×PBS+0.1% Tween and blocked with 200 ul/well of 1×PBS+1% BSA blocking buffer for 1 hr at RT on a plate shaker. Plates were washed 3× with 300 μl/well of 1×PBS+0.1% Tween.
(§2) However, human-PD-L1 mAb² antibodies were diluted in 1×PBS+0.1% BSA buffer and diluted 1 in 2 from a starting working concentration of 0.066 μM over an 11 point titration. Titrated antibodies were added to the plates, 50 μl/well and left to incubate for 1 hr at R.T on a plate shaker. Plates were washed 3× with 300 μl/well of 1×PBS+0.1% Tween.
(§3) DELFIA® Eu-labelled Anti-human IgG (Perkin-Elmer) was diluted 1:500 in DELFIA Assay buffer (Perkin-Elmer) and added to the assay plate (50 μl/well), left to incubate for 1 hr at RT on a plate shaker. […] After incubation, assay was read on Envision plate reader (Perkin Elmer), Time-resolved fluorescence (TRF) was measured at 615 nm.

For test [3], the target named is T2, human ICOS-mFc (Chimerigen). Briefly: DELFIA ELISA on coated human ICOS-mFc, mean. The method, then: as §1, §2, §3
Test [4] shares this target. Briefly: HTRF, human ICOS-mFc, competitor human B7-H2-Alexa 647, n1. The method, then:
(§4) 5 μl of human ICOS-mFc (Chimerigen) at 20 nM (5 nM final) or 5 ul of mouse ICOS-mFc (Chimerigen) at 4 nM (1 nM final) were added to relevant assay wells. Plate was incubated for 1 hour (hr) at room temperature (RT).
(§5) After incubation, assay was read on Envision plate reader (Perkin Elmer) using a standard HTRF protocol. 620 nm and 665 nm channel values were exported to Microsoft Excel and % Delta-F and % Neutralisation calculations performed. Titration curves and IC50 values [M] were plotted using Graphpad (Prism). IC50 values were calculated by first transforming the data using equation X=Log(X). The transformed data was then fitted using nonlinear regression, using fitting algorithm, log (inhibitor) vs. response—variable slope (four parameters).

For test [5], the target named is T3, mouse ICOS-mFc (Chimerigen) (mouse, UniProt Q9WVS0 21-141, limits assumed).
T3 construct: Bought; also called recombinant mouse ICOS protein; mICOS; not shown: mouse Fc of the bought fusion
T3 sequence: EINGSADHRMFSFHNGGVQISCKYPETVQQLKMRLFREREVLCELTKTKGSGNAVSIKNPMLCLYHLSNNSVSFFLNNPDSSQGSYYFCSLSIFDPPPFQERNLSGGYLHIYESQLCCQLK
Nature of the test: HTRF, mouse ICOS-mFc, competitor mouse B7-H2-Alexa 647, n1. As to the method: as §4, §5

Test [6] concerns the target T3, mouse ICOS-mFc (Chimerigen). Briefly: HTRF, mouse ICOS-mFc, competitor mouse B7-H2-Alexa 647, average. The method, then:
as §4, §5

Test [7] deals with T1, human ICOS expressed on cells. Briefly: Flow cytometry on CHO-S human ICOS cells, anti-human IgG AF647, N=3. The method, then: CHO—S cells transfected with either human ICOS or mouse ICOS were resuspended in FACS buffer (PBS+1% w/v BSA+0.1% w/v sodium azide) and transferred to a 96-well V-bottom plate (Greiner) at a density of 1×10⁵ cells per well. mAb and mAb² were titrated in FACS buffer, 1 in 3 dilution across 11 points from a starting working concentration of 400 nM. Plates were centrifuged at 300×g for 3 minutes, supernatant discarded and 50 μL mAb or mAb² solution were added to cells and incubated at 4° C. for 1 hour. Cells were washed with 150 μL of PBS and centrifuged at 300×g for 3 minutes, supernatant was discarded and cell pellet resuspended in 150 μL PBS added. This wash step was repeated twice. Bound mAb or mAb² was detected by addition of 50 μL of anti-human 647 (Jackson ImmunoResearch) diluted to 3 ug/ml in FACS buffer. Cells were incubated for 1 hour at 4° C. in the dark. Cells were washed with 150 μL of PBS and centrifuged at 300 g for 3 minutes, supernatant was discarded and cell pellet resuspended in 150 μL PBS added. This wash step was repeated twice. Cells were fixed with 25 μL 4% v/v paraformaldehyde, incubated for 20 minutes at 4° C., cells were pelleted by centrifugation at 300×g and the supernatant discarded. […] AlexaFluor 647 signal intensity (geometric mean) was measured by flow cytometry using a Beckman Coulter CytoFLEX instrument.

Experimental findings from patent publication US20240343810A1 (published 2024) are described below.

B1: STIM001 (antibody, human IgG1, kappa)
heavy: not shown
light: DIVMTQSPLSLPVTPGEPASISCRSSQSLLHSNEYNYLDWYLQKPGQSPQLLIFLGSNRASGVPDRFSGSGSGTDFTLKITRVEAEDVGIYYCMQSLQTPLTFGGGTKVEIKRTVAAPSVFIFPPSDEQLKSGTASVVCLLNNFYPREAKVQWKVDNALQSGNSQESVTEQDSKDSTYSLSSTLTLSKADYEKHKVYACEVTHQGLSSPVTKSFNRGEC
notes: Anti-ICOS monospecific antibody, tested as human IgG1; also called STIM001 monoclonal IgG1 antibody
Regarding B1, in test [1], the “EC50 of ADCC (specific dye release), ICOS-transfected CCRF-CEM + NK cells, Donor 326” value came to 0.0426 nM. Moreover, in test [1], the “EC50 of ADCC (specific dye release), ICOS-transfected CCRF-CEM + NK cells, Donor 334” value is 0.0205 nM. Further, in test [1], the “EC50 of ADCC (specific dye release), ICOS-transfected CCRF-CEM + NK cells, Donor 341” value is 0.0076 nM. For the same molecule, the “EC50 of ADCC (specific dye release), ICOS-transfected CCRF-CEM + NK cells, column 'Median'” value in test [1] is 0.0236 nM. Besides, the values for the EC50 in test [2], in test [3] and in test [7] were 41.3 nM, 28.9 nM and 19.7 nM, respectively. The IC50 amounted to 0.96 nM in test [4], 7.98 nM in test [5] and 8.71 nM in test [6].

B2: STIM003 (antibody, human IgG1, kappa)
heavy: not shown
light: EIVLTQSPGTLSLSPGERATLSCRASQSVSRSYLAWYQQKRGQAPRLLIYGASSRATGIPDRFSGDGSGTDFTLSISRLEPEDFAVYYCHQYDMSPFTFGPGTKVDIKRTVAAPSVFIFPPSDEQLKSGTASVVCLLNNFYPREAKVQWKVDNALQSGNSQESVTEQDSKDSTYSLSSTLTLSKADYEKHKVYACEVTHQGLSSPVTKSFNRGEC
notes: Anti-ICOS monospecific antibody, tested as human IgG1; also called STIM003 monoclonal IgG1 antibody
Take B2: the “EC50 of ADCC (specific dye release), ICOS-transfected CCRF-CEM + NK cells, Donor 326” value in test [1] was 0.0212 nM. In addition, in test [1], the “EC50 of ADCC (specific dye release), ICOS-transfected CCRF-CEM + NK cells, Donor 334” value amounted to 0.0037 nM. Further, the “EC50 of ADCC (specific dye release), ICOS-transfected CCRF-CEM + NK cells, Donor 341” value in test [1] came to 0.0067 nM. The “EC50 of ADCC (specific dye release), ICOS-transfected CCRF-CEM + NK cells, column 'Median'” value in test [1] was found to be 0.0105 nM. The EC50 was 0.727 nM in test [2], 0.751 nM in test [3] and 4.49 nM in test [7]. In addition, the IC50 in test [4] is 0.43 nM; in test [5], 0.87 nM; in test [6], 0.37 nM.
